Assay results: a protein production outcome set (Wang et al. 2014)

Experiment: label from the status in PepcDB records
For “MMHISVGATEMSWLSSLKSVFSPSQEVKEDDVQTILQSYSLENSSFVLKDRITQINVEGRILQLTIKTFPEEADHLQQIHDELADALQKAGIQELNLHVIQQKTAPRTEPKSSSSTTSSSSHLPPVVDASASPTPDPNNPPIQKKAPIQSEVPAHPRIKNVILVSSGKGGVGKSTTTVNLALALQKQGLKVGVLDADIYGPSIPTMLGNAGRTPKIENENFVPLDAYGLAVLSIGHLTGDNNTPVAWRGPKATGALMQLFNQTLWPDLDVLVIDMPPGTGDIQLTLAQRIPVTGALIVTTPQNVALLDASKGIELFNRVGIPVVGVIENMSTHICSNCGFEEQIFGVGGGDKLSEQYDIPLLGRLPLNAQIRENADKGQPSVIAQDTAAESYQMIAQALWTRVEQLPQRARDDKRIFLEHHHHHH”, the protein production was “failed”. With “MMHYGVLALTFLSVNLDFFLMLVFLLKKYRLWQVLLGYLLGNLILLTASFFVGKALTLFLPEWLLGFLGVLPIWLAFHDDDDDTADRAGGSPVINVLVTYLAVCAGCNLSIFLPVLVGESMVHFVMTLGFIGILTMLVVLIINQVAEIKAVQKQIAAHGERLMKICYVVIGLYVFWDSGLISHLIAFL” the protein production was “failed”. In the case of “MMINRINLTDIRSFVLIARLGNFTKAAETLDVSRSHVSRQISSLEKQMGVTLLIRTTRTLRLTEAGKHFYHQCEQALHTIDQALLSAVDDVEKVQGEIKINCVGGYLGEVFLADIVNTFMQQYPDVSISLDFSSNRVDLIEEEFDIAFRMGSLEDSGFVAKKLLDIEMGTLASPKYLQQYGRPSHPKELQQHHCLTGSVRKWHFQSLVNKEHYDVSIKGNLQCKNGRVLVAGAIAGNGIIRVPLIYCQQELDDKKLVQVFEEWGIPTVDFSAIYHRDRYQPKRIRTFIDFVKQYSDSLFT”, the protein production is reported as “failed”. With “MMKEFTPAPDSASIVSVTDRVKPVALGMGVTSVHFLGDRAAFVGGEENVAFVDSQGEITTVAVHGGGILSTASDGKRLVMGGDDGKVVSLDAKGEVTLLATDPKRRWIDAVALHADGAFAWSAGKTATVKSGKTEEKSLEVPSTVGGLAFAPKGLRLAIAHYNGATLWFPNMAASAEFLPWAGSHHAVTFSPDNKFLVTAMHEPALHGWRLADNRHMRMTGYPGRVRSMSWSAGGKALATSGADTVILWPFGSKDGPMGKEPAMLAPLQARVSVVACHPKNDILAAGYSDGTVLMVRLEDGAEILVRRNGTPPVAALAWNAKGTLLAFADENGDGGLLEL” the protein production was “failed”. For “MMKEMTVQQMTEKVLNKESLFILDVRNESDFRDWKIEGENFAYLNVPYFELVHGVDSIVDRLPKDQDIVVVCAKGGSAAFVAEQLAEAGFDNVYTLAGGMQAWSEHLHQAKVYEDDQLKIYQFIRVGKGCLSYMVLSGDEALVVDPLRFIDVYEQVAQQEGVTITHIVDSHLHADHLSGGKALAERTGAAYYLMKSEGAVFDFEPLEQHETIDFENVHLEVLAVKTPGHTPGSVSFFVNGKWLFSGDTIFVGGLGRPDLGGKVAEWAEDLYHTVYEKVAAMADDVIVLPAHYANLDEEINAEGYVGDTLGRIRARNEMMQNKAKDEFIDLVIQGAKTETPPNFEDIVAINRGLKTVDIETQRELEIGPLEHHHHHH”, the protein production was “not failed”. For “MMKIYLIEHVIGAVAYDENGNIVDYITNPRDLGKITEELLNNEKGIPFSATVELLKKVNPQEVVVENEAEVPKLQALGYRVSYEPYSKVSRIFRESLPKVAIDIKFASNEEDYYNFLHELSLEYTRRKLRSAAQKRDLLAIQAVRAMDDIDKTINLFSERLREWYSIHFPELDKLIEDHEEYATIVSRFGDRGFLTIDSLKELGFNEQRINRILDAAKKSIGADISEDDLSAMRMIANTILDLYNIRRNLNNYLEGVMKEVAPNVTALVGPALGARLLSIAGSLDELAKMPASTIQVLGAEKALFRALRSGGRPPKHGIIFQYPAIHTSPRWQRGKIARALAAKLAIAARVDAFSGRFIGDQLNEQLKKRIDEIKEKFAQPPPKKPQQQKPQQPQKQQAKGKKGGKRRGKRK”, the protein production was “failed”. For “MMKNFVCTTCGVQYAASVEEPVSCHICDEERQYVNPKGQSWTTLENLQTDDTYKNEIIKEENGLYSITTKPGFAIGQTAFVVKTESYRLLWDCITYLDETTITKIKELGGLDAIALSHPHYYSTQVEWAETFDVPIYIHEDDKEWVMRPSSRIIYWSGESLQLADGITVHRLGGHFSGGSVLHWEEGNDGKGILLTGDIIQVVADERWVSFMYSYPNLIPLPARKVEEMVNRVKPLQFNRLYNAFHRVVKENANEAVERSAERYIKAIEGKLFHT”, the protein production was “failed”. For “MMKNMILPIAFTALIASMTACSDETDPILTQKNWDGTATYFQSSDEHGFSMYYKPQVGFVGDPMPFYDPVAKDFKVMYLQDYRPNPEATYHPIFGVATKDGATYESLGELISCGGRDEQDAAIGTGGTIYNPADKLYYTFYTGNKFKPSSDQNAQVVMVATSPDFKTWTKNRTFYLKGDTYGYDKNDFRDPFLFQTEDGVYHMLIATRKNGKGHIAEFTSADLKEWESAGTFMTMMWDRFYECPDVFKMGDWWYLIYSEQASFMRKVQYFKGRTLEDLKATTANDAGIWPDNREGMLDSRAFYAGKTASDGTNRYIWGWCPTRAGNDNGNVGDVEPEWAGNLVAQRLIQHEDGTLTLGVPDAIDRKYTSAQEVKVMAKDGNMIESGKTYTLGEGASVIFNRLKVHNKISFTVKTASNTDRFGISFVRGTDSASWYSIHVNADEGKANFEKDGDDAKYLFDNKFNIPADNEYRVTIYSDQSVCVTYINDQLSFTNRIYQMQKNPWSLCCYKGEITVSDVQVSTY”, the protein production was “failed”. For “MMKRVNSHGSDYWRKNGCDFTDHRAFAPVKILDVAQIKENPMSEQIELIRLAIFFSVLVICALWESNRPRKTLSQSKRVRWLNNLGLVGFNSLLITALMPILAFSAAQWAQSQQFGLLYWLEIPPFIALFVAVVLLDAVIYWQHLLFHRIPLLWRLHRMHHADQDIDVTTGSRFHPLEIMISAWIKIGAVTLLGASPLAVVVFEILLNASAMFNHSNAKLPYKIDQWLRLLVVTPDMHRVHHSVLVHETHSNFGFFLSIWDKMFHTYIAQPEMGHERMKIGLPLFRQAREQWLDKMLTQPFRER”, the protein production was “failed”. With “MMLITERRSPFYPNIQNVPPSVIRKLVKNKAITLIDVRQPWEYEDHHIPGSILLPLDYFKELFPLVLSKNNLVKNGVAIICEHANRSTWLVYTEPSLFKEVKVYNMLGGIELWMIMGYEIEKGMDDNGTLWYKLLTKNLGLEHHHHHH” the protein production was “failed”. With “MMLLLPEFGYVSLLLAVCVGVATALLTFSGYTLRWSGTYRLARCWTLVLFGLVLFAFVALTLSVVQDDFSVNYVAQHSHRDLPLGLKIAAVWGGHEGSLLLWLLCLSGWSATFACRYRKAMSDLFPLTLAMLAVIATALLVFIVFFSDPFVRLFPPAVAGRDLNPMLQHIGLILHPPLLYLGYGGLTVSAALALAALIHGEFTAPAAWICWRWTLPAWSLLTLGIILGSWWAYNELGWGGWWFWDPVENASLLPWLTASALLHSLSVTRMRGIFRHWSLILALLTFILCLLGTLIVRSGILVSVHAFALEHDRAVPLFILFACLSMAALAVYGWRAQLVHSAARFSGWSREMAILLVLLLFSAVALVVLLGTLYPMIYGLAGWGKISVGAPYFNRVLLPFAGLMLLLIGVAAGGYWKRSTRWPVWHLGVTLAVGVVTALVLWPYGYDVALASGLIGWVMAAQWLQPLLALRQQLPALLAHTGVVLFALGIAFSAGSKQEISANVGQGEQVTLGDYQFHFLQLDLVAAQNYTAEQAVIAIYRGDSPIARVIPERRYYNARKQQMIEPGIAWGPIREWYAVMGEKTGENRYAMRFYVQTGVRWVWGGGMLMVAGALLGWFRGRRVYD” the protein production was “failed”. In the case of “MMLSATQPLSEKLPAHGCRHVAIIMDGNGRWAKKQGKIRAFGHKAGAKSVRRAVSFAANNGIEALTLYAFSSENWNRPAQEVSALMELFVWALDSEVKSLHRHNVRLRIIGDTSRFNSRLQERIRKSEALTAGNTGLTLNIAANYGGRWDIVQGVRQLAEKVQQGNLQPDQIDEEMLNQHVCMHELAPVDLVIRTGGEHRISNFLLWQIAYAELYFTDVLWPDFDEQDFEGALNAFANRERRFGGTEPGDETA”, the protein production is reported as “not failed”. With “MMNDIAHNLAQVRDKISAAATRCGRSPEEITLVAVSKTKPASAIAEAIDAGQRQFSEHYVQEGVDKIRHFQELGVTGLEWNFAGPLQSNKSRLVAEHFDWCITIDRLRIATRLNDQRPAELPPLNVLIQINISDENSKSGIQLAELDELAAAVAELPRLRLRGLSAIPAPESEYVRQFEVARQMAVAFAGLKTRYPHIDTLALGQSDDMEAAIAAGSTMVAIGTAIFGARDYSKKGSLEHHHHHH” the protein production was “not failed”. In the case of “MMNIRSKYAVYIFPLLLILFFVGTASALPTVAHDRVQGEMYVASTANWDSHYSTNSFDVPNGTVVFARYYVGVWASGTPSSISATFNGHAFETNPSYYISGMGVTWIPFNVTDYVQPGETNTATIDSSHWGDGRQYGSTLVVVLENENKPEVEYWIAEGLDWVIGYGSSTTYFNDTNIDLDDVDSASLYSTILTGYSSESLNGESLSGAVDSVSGAYFNYIRWDNVKDSLTAENQTIKVVGDGDYTSAVLHGLSITYKIPDLVPTSLTPSYVTPGTVNTMTATIENTDKDSPSFNVSLIADGTVVDTQDVSGIAAGGSTTVDLQWTPEGGKDSYSLTVVVDPDNSVVESEETNNELTVLVGSASVEVPVANFTAVPTSGSIPLTVNFTDQSTNSPTSWFWDFGDGENSTSQNPSHTYTSVGNHTVSLTVTNAEGSDSEVKTDYITVEVITPVAAFTADNTSGAAPFTVQFTDQSANLPAEWFWDFGDGTNSTEQNPAHTYITAGKYTVKLTTANAAGNDSEEKTDYITAYIPPVANFTATPTSGGAPLTVTFTDTSTNMPTEWLWDFGDGVNSTDQNPIHTYTSAGNYTVSFTATNSGGSDSELKTAYITVTAEAGKGGLADTAWPKFHYDLGNTGQSPYTGPQTANVVWTYTTTGEMRLGQGAVIGSDGTMYIGDRSGTLYAINPNGTLKWGTSIGTKSFPTPAIASDGTIYAGGNDKIVYAINPDGSIKWSYPVGTKSVISSPAIASDGTIYFATSTNLFALKPDGTLKWNSAVSYGGYNYFSPAIGSDGTIYLGTYGGALSAINADGTLKWTYSIPAPNNYIYDTPAIASDGTIYFGCNNANLYALNPDGTLKWTYSVGTSASQAIKSSPAIGSDGTIYFGSNNQYFYALYPDGTLKWSSKAGSFGQTTPTIGSDGTIYIDNYGSKTLYAFNPDGTVKWSYADGNYNYASPAIASDGTLYFGKGYTVYAFRDVAPVSNFTADPTSGTAPLTVNFTDQSTGSPTSWFWDFGDGANSTEQNPVHTYSVAGNYTTNLTVTNSAGTDFEVKTDYITVLEPSTPEPEPVAAFTADVTSGSAPLTVNFTDQSTGSPTSWLWDFGDGTNSTEQNPVHTYASAGSYTVNLTVENDAGSDFELKTDYIEVSEISGSTVTLYFDPESSSVAENESTEISLVASNFPAGLSGYNLTVAIDDPAVAEIVGIEYPTWALITENSTLPGTSIYMKTVDLEDSIKEEEGEVVLATLTVSGKEKGSANISIGVKRLEDDSGDSIEPALLTGTIEVTILSLLPDQEYAPKDLDGDGLYEDLTGNGEFSFVDIVAYFHNMDWIEENMPVEYFDFNGNGRIDFDDVVDMFAMI”, the protein production is reported as “failed”. In the case of “MMNKNKTLEYYNKNADNFAKTTINVDFYETQNRFSTLLPEHGYILDFGCGSGRDTKYFLDQGFYVDATDGSEEMCHIASNYTGIQVRRLLFEELDENKKYDGIWACSSILHLPKNELKAVFMKMLKALKEDGIIYTSFKYGDFEGERNGRYFTDFTEKTFEEFVGEIDNLQLKEEWITGDVRPGRGEEKWLNVILQKN”, the protein production is reported as “failed”.
